Results on 41 sequences are retold here after the nanobody polyreactivity screen of Harvey et al. (2022).

The data set can be described thus: yeast display, Sf9 membrane polyspecificity reagent, FACS + sequencing; frameworks hold sequencing errors. A digest of the protocol: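 A nanobody's polyreactivity label depends on the gate it was sorted from. Yeast display cells were stained with 10% biotinylated, detergent-solubilized Sf9 membrane reagent for 1 hour at 4 °C, enriched on streptavidin microbeads and sorted by FACS. The low and high (top ~1%) gates were set on anti-HA fluorescence for expression and streptavidin fluorescence for reagent binding.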
In the case of “QVHLVESGGCLVQAGGSLRLSCAASGITFRWYAMGWYILAPGKERELVSSIDGRGASTYADSVKGRFTSSRDNAKNTVYLQMNSLKPEDSAVYYCAVAQVRVSYLWVRKFYYWGQGTQVTVSS”, the “polyreactivity (PSR sort gate)” value is “high polyreactivity”. The same measure for “QVHLVESGGCLVQAGGSLRLSCAASGNSFVSNAMGWYIQAPGKERELVAAIDSGGSTNYADSVKGRFTISRDNAKNTVYLQMNSLKPVDTAVYYCNRTSVYYYYWGQGTQVTVSS”: “low polyreactivity”.

As for “QVHLVESGGCLVQAGGSLRLSCAASGRIFGVYVMGWYRQARGTEREFVAAITWSGGRTYYADSVKGRFTISRDNAKNTVYFQMNSLKPQDTAVYYCAARRSYEYVYWGKGTQVTVSS”, the “polyreactivity (PSR sort gate)” value is “high polyreactivity”. The same measure for “QVHLVESGGCLVQAGGSLRLSCAAYGSIFPKYALGWYRQAPGKERELVATISYRGGRTYYADSVKRRFTISRDNAKNTVYLQMNSLKPEDTAVYYWNAHSQAKLDYWGQGTQVTVSS”: “low polyreactivity”.

“QVHLVESGGGIVQAGGSLRLSCAASGRTFRKYAMGWYRQAPGKEMELVAAISWSGGSTYYANSVKGRFTISRDHAKNTVYLQLNSLIPEDPAVYYCAATAYYYYDYDYWGQGTQVTVSS”: the “polyreactivity (PSR sort gate)” value is “low polyreactivity”.

On to “QVHLVESGGGIVQAGGSLRLSCAASGSIFKKNAMGWSRQAPGKERELVAAITLSSSDTYYADSVKGRFTISRDNAKNTVYLQMNSLKPEDTAVYYCAAKRTRDMDYWGQGTQVTVSS”, for which the “polyreactivity (PSR sort gate)” value is “high polyreactivity”. Then “QVHLVESGGGIVQAGGSLRLSCAASGSIFKYYPMGWYRQAAGKERELVAVISSGGRTYYADSVKGRFTISRDNAKNTVYLQMNSLKPEDTAVYYCAVYRTFRYRYDSWGQGTQVTVSS”, with “high polyreactivity”; and “QVHLVESGGGIVQAGGSLRLSSAATGRTFPYNAMGWYRQAPGKERELVAAISSGGSTNYADSVKGRFTISRDNAKNTVYLQMNSLKPEDTAVYYCATKYQRRPYRYYYWGQGTQVTVSS”, with “low polyreactivity”; and “QVHLVESGGGLDQAGASLRITSAATGFTFRQNVKRWYRQAPGKESEFVATITWSGGRTSYADSVKGRFTISRDNAKNTVYLQMNSLKPEDTAVYYCAARFFSYSQYAYNYWGQGTQVTVSS”, with “high polyreactivity”. The same measure for “QVHLVESGGGLFQAGGSLRISCSASGSIFARNAMGWYRQAPGKERELVAAISRSGGSTYYADSVKGRFTISRDNAMMTVSFQMNSLKPEDTAVYYCAAVRRRTVGYNYWGQGTQVTVSS”: “high polyreactivity”; for “QVHLVESGGGLFQAGGSLRLRCAASGFTFASNAMGWYIQAPGKERELVAAITRSGGSTFYADSVKGRFTISRDNAKNTVYLQMKSLKPEDTAVYYCNAAPYGFGWRVRAFTGYDYWGQGTQVTVSS”: “low polyreactivity”; for “QVHLVESGGGLFQAVLSLRLSCAASGFIFQRYPMGWYRQAPGKESELVAAISSGGGTNYADSVKGRFTISRDNAKKTVYLQLNSLIPEDTAVYYCARPYYVYSQSSDYWGQGTQVTVSS”: “low polyreactivity”. The same measure for “QVHLVESGGGLGQAGGSLRLSCAASGIIFRLYAKGWYIPAPGKERELVAAISRRGDSTYYADSVKGRFTISRDNAKNTVYLQMIILKPEDTAVYYCAAERWGDYGYWGQGTQVTVSS”: “high polyreactivity”; for “QVHLVESGGGLLQAGGSLRLSCAASGSIFAYNAMGWYREAPRKERELVASITNGGSTYYADSVKGRFTISRYNAKNSVYLQMKSLKPEDTAVYYCNTDFDGYSVGYDGYWGQGTQVTVSA”: “low polyreactivity”.

Take “QVHLVESGGGLVEAAVSLRLSYAASGITVKSYAMGSYRQAPGKERELVADISSSGGTTYYADYVKGRFTISRDNAKNTVYLKMKSLKAEHTAVYYCNAKWGRYFSGGYGDEYDYWGQGTQVTVSS”: the “polyreactivity (PSR sort gate)” value is recorded as “high polyreactivity”. Then “QVHLVESGGGLVHAGGRLRLSCAASGRIFGLNAMGWYRQAPGKERELVAAIDIIGGSTYYADSVKGRFTISRDNAKNTVYLQMNSLIPEDTAVFYCAAEADFWRFVEFDYWGQGTQVTVSS”, with “low polyreactivity”; and “QVHLVESGGGLVNAGGSLRLSCAASGRIFSGYAMGWYRQAPGKERELVAAITSVGSTNNADSVKGRFTISRDNAKNTVYLQMNSLKPEDTAVYYCAARGSYARGYDYWGQGTQVTVSS”, with “high polyreactivity”. Then “QVHLVESGGGLVQAAGSLRLSCAASGSTFKYNAMGWYRQAPGKERELVAAITRGGRTYYADSVKGRFTISRDNAKNTVYLQMNSLKPEDTEVYYCAAAIPSGTFYAGAYYYWGQGTQVTVSS”, with “high polyreactivity”. The same measure for “QVHLVESGGGLVQAGASLRLSCAASGFTFGVNAMGWSRQAPGKERELVAVITSGGNTYYADSVKGRFTISRDNAKNTVYLHMNSLNPEDTAVYYCAAYGRASWERDYWGKGTQVTVSS”: “low polyreactivity”; for “QVHLVESGGGLVQAGASLRLSCAASGRIFYKYAMGWYRQAPGKERELVAAISYRGGSTYYADSVKGRFTISRDNAKNSVYLQMKSLKPEDNAVYYCAADRWYYSVSTKSDSWGQGTQVTVSS”: “high polyreactivity”. “QVHLVESGGGLVQAGCSLRLSCAASGSIFSYYAMGWYRQAPGKERELVAAISVSGGNYADSVKGRFTISRDNAKNTVYLQMNSLKPEDTAVYYCAALNVYGSADVTTLEMDYWGQGTQVTVSS”: the “polyreactivity (PSR sort gate)” value is given as “low polyreactivity”.

Consider “QVHLVESGGGLVQAGGILRLRSAASGSTVYGYAMGWYRQAPGKERELVAAITRSGGSTYYADSVKGRFTISRDNATNKVYLQMNSQKPEDTEFYYCNKYGYKGGDGYDYWGQRTQVTVSS”, for which the “polyreactivity (PSR sort gate)” value is listed as “high polyreactivity”. Then “QVHLVESGGGLVQAGGILRLSCAASGLTFRYYTMGWYRQEPGKERELVASITIRGGSTYYADSVKGRFTISRDNAKNTVYLQMNSLKPEDTAVYYCNTRYGFSFGYWGQGTQVTVSS”, with “high polyreactivity”.

Turning to “QVHLVESGGGLVQAGGILRLSCAASMVWYRQAPGKERELVAAINTRTGTTYYADSVKGRFTISRDNAKNTVYLQMNSLKPEDTAVYYCAARTYRTRYYYWGQGTQVTVSS”, the “polyreactivity (PSR sort gate)” value is “high polyreactivity”.

On to “QVHLVESGGGLVQAGGRLRLSCAASGSIFDRYAMGWYRQAPGKEREFVARIRSSTGGTDYADSVKGRFTISRDNAKNTVYLQMNILKPEDTAVYYCAASSSHYYYWIQGSYWGRGVYWGQGSQVTVSS”, for which the “polyreactivity (PSR sort gate)” value is “high polyreactivity”.

Regarding “QVHLVESGGGLVQAGGRLRLSCAASGSIFRLYAMGWYRQAPGKERELVARITTGGSTNYADSVKGRFTISLDNAKNTVYFQMNSLKPEDTAVYYCNGGVLVTAQMGWQKYSYWGQGSQVTVSS”, the “polyreactivity (PSR sort gate)” value is reported as “high polyreactivity”. Then “QVHLVESGGGLVQAGGSHRLSCASSGFIFYFYTMGWYRQAPGKERELVAGITWLDGSTYYADSVKGRFTISRDNAKNTVYLQMNSLKPEDTAVYYCAVDYDLVVSPYYYWGQGTQVTVSS”, with “low polyreactivity”. As to “QVHLVESGGGLVQAGGSIRLSCAASGSTFLVYAMGWYRPAPGKGRELVAAISRSGSSTYYADSVKGRFTISRDNAMNTVYLQMIRLKPEDTAVYYCNAYSQYWLGNNYWGQGTQVTVSS”, the “polyreactivity (PSR sort gate)” value is reported as “high polyreactivity”. Then “QVHLVESGGGLVQAGGSLRISCAASGFTFRKYSMGWYRQAPGKERELVAGITSGGSTNNADSVKGRFTISRDNAKNTVYLQMNSLKPEDTAVYYCNAARYYAYIGDYWGQCTQVTVSS”, with “high polyreactivity”; and “QVHLVESGGGLVQAGGSLRISCAASGRIFWWYAMGWYRQAPGKERELVAAISTGSRTYYADSVKGRFTISRDNAKNTVFLQMNRLKPEDTAVYYCVADGLYSVSRSSIFEYWGHGTQVTVSS”, with “low polyreactivity”; and “QVHLVESGGGLVQAGGSLRISCAASGRTFQVYAMGRYRQAPGKERELVAAISLTGGGTYYADSVKGRFTISRDYANNTVYLQMNSLKPEDTAVYYCAVRRRTHLGFLYEYWGQGTQVTVSS”, with “high polyreactivity”. For “QVHLVESGGGLVQAGGSLRLICAASGSIFSAYALGWYRQAPGKERELVAAITWRGGSTYYADSVKGRFTISRDNAKNTVYLQMNSLKPEDTAVYYCAKYYYYLRSARKYDYWGQGTQVTVSS”, the “polyreactivity (PSR sort gate)” value was “high polyreactivity”. The same measure for “QVHLVESGGGLVQAGGSLRLICAASGSTFLYYAKGWYRQAPGNEMELVAANSQSSASTYYADSVKGRFTISRDNAKTTIYFQIISLKPEDTAVYYCAADYWSVPYIYEYWRQGTQVTVSS”: “high polyreactivity”. The same measure for “QVHLVESGGGLVQAGGSLRLICAASGYIFQRNAMGWYRQAPGKEREFVAAITRSGGTTYYADSVKGRFTISRDNAKNTVYLQMNSLKPEDTAGYYCNAPRSDRSVYHYHYWGQGTQVTVSS”: “low polyreactivity”; for “QVHLVESGGGLVQAGGSLRLRSAASGRTFGWNVMGWYRQAPGKERELVAAISGSGGSTYYADSVKGRFTISRDNAKNTVYLQMNSLKPEDTAVYYCDALYGPGREYDYWGQGTQVTVSS”: “low polyreactivity”; for “QVHLVESGGGLVQAGGSLRLSCAASASTYGSNSMGWYRQAPGKERELVAAITLPGASTYYADSVKGRFTISRDNAKNTVSLEMNSLKGEDTSVYSCAAQIHPRRDYSAFDYWGPGTQVTVSS”: “low polyreactivity”. Turning to “QVHLVESGGGLVQAGGSLRLSCAASGFIFDKYAMGWYRQAPGKERELVAAITDTGGNTYYADSVKGRFTISRDNAKNTVYLQMNSLKPEDTAVYYCNADYNDYQTYSATTYEYWGQGTQVTVSS”, the “polyreactivity (PSR sort gate)” value is “low polyreactivity”. Take “QVHLVESGGGLVQAGGSLRLSCAASGFIFGSNAMGWSRQAPGKERELVAAITYSGASTYYADSVKGRFTISRDNAKNTVYLQMNSLKPEDTAVYYCNAVYSSVVDGSEGFDYWGQGTQVTVSS”: the “polyreactivity (PSR sort gate)” value is “low polyreactivity”. Then “QVHLVESGGGLVQAGGSLRLSCAASGFIFSFYGMGWSRHAPAKESELVAAISSGGTTYYADSVKGRFTISRDNAKNSVYLQMNSLKPEDTAVYYCAGRVARRTTSVFSYFSRYNYWGQGTQVSVSS”, with “high polyreactivity”; and “QVHLVESGGGLVQAGGSLRLSCAASGFIFSWYDMGWYRQAPGKERELVAAINWSGGSTYYADSVKGRFTISRDNAKNTVYLQIISLKPEDTAVYYCAAVRQSQFEYWGQGTQVTVSS”, with “high polyreactivity”.

Take “QVHLVESGGGLVQAGGSLRLSCAASGFTFGPYAMGWYRQAPGKERELVAGITWSGASTYYADSVKGRFTISRDNAKNTVYLQMNSLKPEDTAVYYCARYYRLGSRYDYWGQGTQVTLSS”: the “polyreactivity (PSR sort gate)” value is recorded as “low polyreactivity”.
